Measurements taken from the supplement of paper PMC10724198.
± gives the standard deviation of the averaged measurements.

Test system: Saccharomyces cerevisiae
Assay: protein stability index of tFT-peptide fusion (C-terminal peptide) (PSI (0-1 scale)); higher = more stable (slower turnover)
Conditions: genetic background: wild type; temperature: 30 C
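Also: PSI is a weighted mean of sequencing reads over stability bins, variants kept only with over 10 reads, mCherry proximal and sfGFP distal, peptide attached via GGGS linker.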

Sequence | protein stability index
GSLGTTTILRKT | 0.67 ± 0.064
VPCPPRRLAPRG | 0.582 ± 0.015
LSTCRYMLRLAY | 0.5233 ± 0.0021
SALTSLAFGSFE | 0.704 ± 0.046
WSQDRLFLGFGC | 0.875 ± 0.038
FTPPPPPPPPVL | 0.6691 ± 0.0051
TKKNDKIRIQKS | 0.741 ± 0.043
LPVGYVCGLWVG | 0.543 ± 0.038
SSLPAPSPVPSP | 0.731 ± 0.081
GAWASLPGLISP | 0.729 ± 0.058
RLSGWGLGVWQE | 0.681 ± 0.042
AVLGDGCGVVGA | 0.691 ± 0.072
LTGRAVCTDKLK | 0.734 ± 0.083
MKGELRHRWCPL | 0.71 ± 0.046
PRSPPPPLLSPP | 0.692 ± 0.037
QIQKINTKSKKN | 0.699 ± 0.021
WFRLRFASGRRS | 0.682 ± 0.054
GSFFFFLAPSYF | 0.636 ± 0.014
PASYLSSPLRPP | 0.667 ± 0.046
RKIQNASLGRGA | 0.7 ± 0.037
IGCCSGYGGERG | 0.691 ± 0.018
SPSPPPASPPAP | 0.654 ± 0.14
EKNKKKIERSTM | 0.684 ± 0.012
ARRPAESHGTTI | 0.716 ± 0.012
RVGSRRGVVCLL | 0.7526 ± 0.0014
SPSFPPHRPPQH | 0.724 ± 0.066

Sequence | protein stability index
NVGACRVMKTVY | 0.6876 ± 0.003
SPLPRPHRGPPP | 0.58 ± 0.054
CGGGCVVGAGWG | 0.727 ± 0.044
VCPPIVSSSWIL | 0.687 ± 0.035
PPPPRPAPAPLL | 0.6948 ± 0.0067
SSNRKLVRLASS | 0.69 ± 0.084
GFSFSSFLRGLF | 0.625 ± 0.017
LPPSPILFPASP | 0.754 ± 0.072
RMSLGLHGVMRC | 0.683 ± 0.045
HTNKNTTIQNKK | 0.702 ± 0.11
MVEFWDLPGRSC | 0.744 ± 0.081
SSRPLYLFSALR | 0.689 ± 0.053
LKIDTCSQQEEN | 0.675 ± 0.11
PRSPSLPPLFSP | 0.718 ± 0.072
REKKDGKLSTTR | 0.761 ± 0.045
AGHFITRTGGPT | 0.7 ± 0.07
VGGGGERGRGGS | 0.687 ± 0.01
TGLLLGLFGCML | 0.648 ± 0.068
WGDGSGRVWEIS | 0.68 ± 0.03
AVCWDVSRCLGL | 0.7 ± 0.019
FPLPPPPPAVFL | 0.673 ± 0.086
PPPLSLLPPCSP | 0.678 ± 0.12
SPPPLPPPPPSP | 0.68 ± 0.036
LRLRGCSATVPG | 0.752 ± 0.063
EHGEFLEGARGV | 0.645 ± 0.0075
STQDIRTTKRVA | 0.681 ± 0.077

Sequence | protein stability index
LGVGSVGAKCGS | 0.639 ± 0.0071
QPSDTSHPHQPS | 0.692 ± 0.028
RLFRRSPTPALR | 0.8 ± 0.067
RRSDTTQQSVSL | 0.623 ± 0.077
AGMRRRGGAGGW | 0.684 ± 0.052
DGLGSSGCCLCW | 0.693 ± 0.038
WVTCALVVQSRF | 0.693 ± 0.0073
VVRMFRLGNGNF | 0.7 ± 0.0083
SPPPPQEADYVV | 0.62 ± 0.026
PLLPLRSPPPLV | 0.637 ± 0.046
VMYLSGCFHSQI | 0.659 ± 0.059
LLFPPVCRPCLS | 0.605 ± 0.11
TRKESNTIHNEQ | 0.688 ± 0.014
YRALRRAFENKI | 0.633 ± 0.028
QRARDSLVQTRH | 0.681 ± 0.032
VSCHSPPVPHDP | 0.702 ± 0.011
PTLSPSPLAPLS | 0.6635 ± 0.0018
HPGVPGSPFLSC | 0.714 ± 0.041
TKKKTINRTQKQ | 0.713 ± 0.043
VASSGRSPTPTR | 0.7551 ± 0.0015
PPPTHPHLSSAL | 0.73 ± 0.04
LARLPPPSLSRV | 0.713 ± 0.055
MGAAWNYANFGL | 0.7011 ± 0.0059
YNANEKTINKDK | 0.693 ± 0.063
HYPGSGAVEQHE | 0.599 ± 0.016
GGGGLREGGRWE | 0.743 ± 0.038

Sequence | protein stability index
GPGGGGGLWVRV | 0.617 ± 0.016
PPPLPPRLPHLA | 0.664 ± 0.036
PAVLLGPCARVP | 0.699 ± 0.04
ESPTWVVLEGLG | 0.6996 ± 0.0014
AVHASTLCSSIG | 0.6659 ± 0.0043
SYSSRSCALRVI | 0.533 ± 0.043
PPRLASFYIILG | 0.571
RGGERAGETAGQ | 0.695 ± 0.053
DLDVVGEGSAGT | 0.683 ± 0.046
AQPFATTGGGLV | 0.69 ± 0.24
RETPPALRSFPV | 0.613 ± 0.26
WRFTSCCPDPAT | 0.772 ± 0.076
GFVAGGVCSRPL | 0.715 ± 0.076
PAPPALPFHCPR | 0.654 ± 0.075
IGPRGPFHLTRI | 0.675 ± 0.037
KQLGMTCRYISK | 0.692 ± 0.022
DKSHRKNKKKRN | 0.699 ± 0.0074
CQVDGTMLCSEC | 0.652 ± 0.02
LVGGGEGWVVLG | 0.651 ± 0.09
SLLSLPPSRAPS | 0.666 ± 0.022
SSFLLGCAFPLG | 0.688 ± 0.0075
EAGGRWEVSCQA | 0.6133 ± 0.0017
KSDSDNCQALTY | 0.679 ± 0.067
